# Assay results: publication PMC6125358, “Mapping the Interface of a GPCR Dimer: A Structural Model of the A2A Adenosine and D2 Dopamine Receptor Heteromer” (Frontiers in Pharmacology, 2018)
# B1: 3xHA-D2R^GFP2 (human D2 dopamine receptor, wild type) [human] / human adenosine receptor fused to Renilla luciferase (A2AR^Rluc) [human] (parent)
# chain 1: MPIMGSSVYITVELAIAVLAILGNVLVCWAVWLNSNLQNVTNYFVVSLAAADIAVGVLAIPFAITISTGFCAACHGCLFIACFVLVLTQSSIFSLLAIAIDRYIAIRIPLRYNGLVTGTRAKGIIAICWVLSFAIGLTPMLGWNNCGQPKEGKNHSQGCGEGQVACLFEDVVPMNYMVYFNFFACVLVPLLLMLGVYLRIFLAARRQLKQMESQPLPGERARSTLQKEVHAAKSLAIIVGLFALCWLPLHIINCFTFFCPDCSHAPLWLMYLAIVLSHTNSVVNPFIYAYRIREFRQTFRKIIRSHVLRQQEPFKAAGTSARVLAAHGSDGEQVSLRLNGHPPGVWANGSAPHPERRPNGYALGLVSGGSAQESQGNTGLPDVELLSHELKGVCPEPPGLDDPLAQDGAGVS
# chain 2: MDPLNLSWYDDDLERQNWSRPFNGSDGKADRPHYNYYATLLTLLIAVIVFGNVLVCMAVSREKALQTTTNYLIVSLAVADLLVATLVMPWVVYLEVVGEWKFSRIHCDIFVTLDVMMCTASILNLCAISIDRYTAVAMPMLYNTRYSSKRRVTVMISIVWVLSFTISCPLLFGLNNADQNECIIANPAFVVYSSIVSFYVPFIVTLLVYIKIYIVLRRRRKRVNTKRSSRAFRAHLRAPLKGNCTHPEDMKLCTVIMKSNGSFPVNRRRVEAARRAQELEMEMLSSTSPPERTRYSPIPPSHHQLTLPDPSHHGLHSTPDSPAKPEKNGHAKDHPKIAKIFEIQTMPNGKTRTSLKTMSRRKLSQQKEKKATQMLAIVLGVFIICWLPFFITHILNIHCDCNIPPVLYSAFTWLGYVNSAVNPIIYTTFNIEFRKAFLKILHC
# Variants of: B1
# Assay: BRET2 saturation assay
# Details: with human A2A adenosine receptor fused to Renilla luciferase (A2AR^Rluc) [human]; height of the fitted saturation curve read at x = 6 AU (GFP2-GFP2_0)/Rluc; co-expressed in cells; DeepBlueC substrate, 10 min incubation; read off a plot
row,response (netBRET2 ratio),Variant
1,0.056,chain 2 Y192A
2,0.048,chain 2 L207A K211A
